Sequences and labels used below:
B1: M15-YTE (antibody, V domains shown)
VH: QVQLLESGGGLVQPGGSLRLSCAASGFTFSSYAMSWVRQAPGKGLEWASAISGSGGSTYYADSVEGRFTISRDNSKNTLYLQMNSLRAEDTAVYYCAKDTGYCGDDCYIKLIRGGPDYWGQGTLVTVSS
VL: DIVMTQSPLSLPVTLGQPASISCRSSQSLVYSDGNTFLNWFQQRPGQSPRRLIYQVSNRDSGVPDRFSGSGSGTDFTLKISRVEAEDVGVYYCMQGTHWPRTFGQGTKLEIK
B2: S15-YTE (Fc fusion)
VH: B1 VH
VL: B1 VL
B3: S15-HDEL (Fc fusion)
VH: B1 VH
VL: B1 VL
B4: M15-HDEL (antibody, V domains shown)
VH: B1 VH
VL: B1 VL
B5: S15-FX (Fc fusion)
VH: B1 VH
VL: B1 VL
B6: M15 (plant-produced COVA2-15, conventional IgG1) (antibody, V domains shown)
VH: B1 VH
VL: B1 VL
B7: S15 (plant-produced COVA2-15, single-chain (sc)Fv-Fc format) (Fc fusion, human)
VH: B1 VH
VL: B1 VL
B8: M15-FX (antibody, V domains shown)
VH: B1 VH
VL: B1 VL

The target in this assay is T1, SARS-CoV-2 Spike Wuhan (recombinant) (SARS-CoV-2, Wuhan-Hu-1, UniProt P0DTC2).
T1 construct: also called recombinant SARS-CoV-2 Spike
The assay can be described thus: ELISA; plates coated with 2 μg/mL SARS-CoV-2 Spike Wuhan in PBS; antibodies from 5 nM, 10-fold serial dilutions in PBS/0.5% BSA, 1 h RT; detected with goat anti-human IgG (H + L) peroxidase. The following applies: both partners purified. Background: An ELISA detects its analyte on a solid surface through an enzyme-linked reagent.
As to B1, the binding result was “binds”.

For B2, the binding result was “binds”.

Take B3: the binding result is recorded as “binds”.

With B4, the binding result was “binds”.

On to B5, for which the binding result is listed as “binds”.

Consider B6, for which the binding result is listed as “binds”.

For B7, the binding result is given as “binds”.

B8: the binding result was “binds”.

The values are drawn from PMC11672753 (Plant Biotechnology Journal, 2024).
